Laboratory results: paper PMC3835790, “Statistical Experimental Design Guided Optimization of a One-Pot Biphasic Multienzyme Total Synthesis of Amorpha-4,11-diene” (PLoS ONE, 2013)

Tested on: CC(C)=CCC/C(C)=C/CC/C(C)=C/CO[P@@](=O)(O)OP(=O)(O)O
Experiment: purified protein
Details: 100 mM Tris/HCl pH 7.4, 30°C, substrate not printed in the table row, FPP from the pathway

Sequence of amorpha-4,11-diene synthase (Ads) (Artemisia annua) (chain, as listed by the source): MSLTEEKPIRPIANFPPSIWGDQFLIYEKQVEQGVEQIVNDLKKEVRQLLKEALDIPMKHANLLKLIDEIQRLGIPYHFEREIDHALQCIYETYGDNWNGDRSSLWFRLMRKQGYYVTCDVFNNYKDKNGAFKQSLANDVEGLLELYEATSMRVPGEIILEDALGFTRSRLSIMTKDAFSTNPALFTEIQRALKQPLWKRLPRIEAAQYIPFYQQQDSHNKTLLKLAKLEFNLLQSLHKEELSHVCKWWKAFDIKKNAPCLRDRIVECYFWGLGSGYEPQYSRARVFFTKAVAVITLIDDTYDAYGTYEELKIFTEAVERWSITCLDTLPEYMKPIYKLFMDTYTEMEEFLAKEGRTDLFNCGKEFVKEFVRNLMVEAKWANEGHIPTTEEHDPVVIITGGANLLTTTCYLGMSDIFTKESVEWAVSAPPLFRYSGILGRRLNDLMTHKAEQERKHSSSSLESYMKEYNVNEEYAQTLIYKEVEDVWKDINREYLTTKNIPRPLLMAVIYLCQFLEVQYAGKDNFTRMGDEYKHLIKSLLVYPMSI

In the case of “amorpha-4,11-diene synthase (Ads) (Artemisia annua)”, the Km is reported as 43.72 ± 10.4 µM and the kcat is reported as 0.05 s⁻¹.
